Data on four molecules can be found in patent US20260250362A1 (published 2026).

Like-named read-outs stand apart in the source and are kept apart here. Bounds are passed on as bounds.

Test [1] concerns the target T1, recombinant ANDV Gn^H/Gc heterodimer (Andes virus (ANDV)). Briefly: BLI.
Test [2] addresses PUUV GnH/Gc. Description: BLI. On the technique in general: In BLI a coated tip is dipped into the sample, and binding shifts an interference pattern.
Test [3] deals with T1, recombinant ANDV Gn^H/Gc heterodimer. Description: BLI. The source holds these as a separate data set.
The target in test [4] is PUUV GnH/Gc. Description: BLI. This is another data set of the same source.
The target of test [5] is PUUV (Puumala virus (PUUV)). Briefly: ELISA. (In general: In an ELISA, binding on a coated surface is turned into a signal by an enzyme label.)

B1: ADI-42898 Fab (Fab, V domains shown)
VH: QVQLVESGGGVVQPGRSLRLSCAASGFTFSSYAMHWVRQAPGKGLEWVAVTWFDVSKKDYADSVKGRFTISRDNSKNTLYLQMNSLRAEDTAVYYCARNLIRYSGSYFPVHGMDVWGQGTTVTVSS
VL: DIVMTQSPLSLPVTPGEPASISCRSSQSLLHTYGYNSLDWYLQRPGQSPQLLISLGSYRASGVPDRFSGSGSGTDFTLKISRVEAEDVGVYYCMQALHPFTFGGGTKVEIK
A word on the Kd: it is a measure of binding affinity in units of concentration. For the molecule B1, the Kd in test [1] amounted to 19600 nM; in test [2], 1.9 nM.

B2: ADI-42898 (antibody, V domains shown)
VH: B1 VH
VL: B1 VL
For B2, the Kd in test [3] stood at 2.8 nM.

B3: ADI-42898 IgG (antibody, V domains shown)
VH: B1 VH
VL: B1 VL
B3 registered a Kd in test [4] of 1.5 nM.

B4: IgG (antibody, V domains shown)
VH: B1 VH
VL: B1 VL
By EC50 is commonly meant the concentration that produces a half-maximal response. In turn, B4 gave an EC50 in test [5] of less than 0.1 nM.
